Experimental findings from paper PMC7352312 are described below.

The target of assay [1] is AcSpN A71R mutant (Nephila antipodiana) (Nephila antipodiana). The experiment in a line: AUC; sedimentation velocity, 1.5 mg/mL protein, 20 mM phosphate, 300 mM NaCl, pH 7.0-8.0 (mutants and MaSpN at pH 7.0), 24 °C; self-association.
For assay [2], the target named is AcSpN K103E mutant (Nephila antipodiana) (Nephila antipodiana). The experiment in a line: AUC; sedimentation velocity, 1.5 mg/mL protein, 20 mM phosphate, 0 mM NaCl, pH 7.0-8.0 (mutants and MaSpN at pH 7.0), 24 °C; self-association.
For assay [3], the target named is AcSpN K122E mutant (Nephila antipodiana) (Nephila antipodiana). The experiment in a line: AUC; sedimentation velocity, 1.5 mg/mL protein, 20 mM phosphate, 150 mM NaCl, pH ≥ 7.0 (mutants and MaSpN at pH 7.0), 24 °C; self-association.
Assay [4] addresses AcSpN R107E mutant (Nephila antipodiana) (Nephila antipodiana). The experiment in a line: AUC; sedimentation velocity, 1.5 mg/mL protein, 20 mM phosphate, 0 mM NaCl, pH 7.0-8.0 (mutants and MaSpN at pH 7.0), 24 °C; self-association.
For assay [5], the target named is N-terminal domain of aciniform silk protein (AcSpN) from Nephila antipodiana, construct S15-E153 (renumbered S4-E142) (Nephila antipodiana). The experiment in a line: AUC; sedimentation velocity, 1.5 mg/mL protein, 20 mM phosphate, 150 mM NaCl, pH < 7.0, 24 °C; self-association.
For assay [6] the target is unchanged. The experiment in a line: AUC; sedimentation velocity, 1.5 mg/mL protein, 20 mM phosphate, 300 mM NaCl, pH 5.85 and 5.50, 24 °C; self-association.
Assay [7] has the same target. The experiment in a line: AUC; sedimentation velocity, 1.5 mg/mL protein, 20 mM phosphate, 150 mM NaCl, pH ≥ 7.0 (mutants and MaSpN at pH 7.0), 24 °C; self-association.
Assay [8] concerns the target N-terminal domain of major ampullate silk protein (MaSpN) from Nephila antipodiana, construct T1-E137 (Nephila antipodiana). The experiment in a line: SEC; Superdex 200 Increase 10/300 GL, 20 mM sodium phosphate pH 7.0, 50 mM NaCl, ~600 µM protein injected; self-association.
For assay [9] the target is unchanged. The experiment in a line: AUC; sedimentation velocity, 1.5 mg/mL protein, 20 mM phosphate, 0 mM NaCl, pH 7.0-8.0 (mutants and MaSpN at pH 7.0), 24 °C; self-association.

Turning to “AcSpN A71R mutant (Nephila antipodiana) (domain or fragment)”, the percent in a dimeric form in assay [1] stood at 10%. On to “AcSpN K103E mutant (Nephila antipodiana) (domain or fragment)”, for which, in assay [2], the stoichiometry N (as a rule, the number of molecules, sites or subunits per partner or assembly) was determined as 2. Regarding “AcSpN K122E mutant (Nephila antipodiana) (domain or fragment)”, the stoichiometry N in assay [3] turned out to be 2.

With “AcSpN R107E mutant (Nephila antipodiana) (domain or fragment)”, the stoichiometry N in assay [4] came out at 2. For “N-terminal domain of aciniform silk protein (AcSpN) from Nephila antipodiana, construct S15-E153 (renumbered S4-E142) (domain or fragment)”, the stoichiometry N in assay [5], in [6] and in assay [7] was 2 in each case. Turning to “N-terminal domain of major ampullate silk protein (MaSpN) from Nephila antipodiana, construct T1-E137 (domain or fragment)”, the stoichiometry N in [8] and in [9] was 2 in each case.
